The assay concerns the target human GLP-1 receptor (human) (UniProt P43220). The experiment in a line: cell-based or functional assay.
human GLP-1 receptor (human), sequence (P43220 24-463): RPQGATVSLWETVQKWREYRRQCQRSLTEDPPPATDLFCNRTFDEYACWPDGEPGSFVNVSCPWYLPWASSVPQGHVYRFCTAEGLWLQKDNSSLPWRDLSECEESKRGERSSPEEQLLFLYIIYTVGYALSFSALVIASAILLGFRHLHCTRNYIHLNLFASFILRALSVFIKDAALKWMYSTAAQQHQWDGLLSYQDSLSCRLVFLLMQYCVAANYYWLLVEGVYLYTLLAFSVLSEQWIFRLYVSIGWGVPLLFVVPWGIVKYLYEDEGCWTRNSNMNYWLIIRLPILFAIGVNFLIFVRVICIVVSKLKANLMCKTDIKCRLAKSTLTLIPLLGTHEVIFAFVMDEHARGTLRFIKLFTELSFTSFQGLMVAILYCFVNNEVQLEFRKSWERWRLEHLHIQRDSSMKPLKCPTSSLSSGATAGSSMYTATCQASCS
The substance Val^8-GLP-1(7-37)OH (peptide) returned an In vitro activity relative to Val^8-GLP-1(7-37)OH (EC50 potency, CRE-BLAM β-lactamase reporter in HEK-293 cells expressing human GLP-1 receptor) (fold relative to Val^8-GLP-1(7-37)OH) of 1. Gly^8-GLP-1(7-37)OH (peptide) registered an In vitro activity relative to Val^8-GLP-1(7-37)OH (EC50 potency, CRE-BLAM β-lactamase reporter in HEK-293 cells expressing human GLP-1 receptor) (fold relative to Val^8-GLP-1(7-37)OH) of 1.67. Next, Val^8-Leu^16-GLP-1(7-37)OH (peptide): 1.13; Val^8-GLP-1(7-36)NH2 (peptide): 1.06; Val^8-Tyr^12-GLP-1(7-37)OH (peptide): 1.73. Under “Arg^34Lys^26-(N-ε-(γ-Glu(N-α-hexadecanoyl)))-GLP-1(7-37) (peptide)” stands 1.92; under Val^8-Glu^22-GLP-1(7-37)OH (peptide), 3.33.

Substance Val^8-Lys^22-GLP-1(7-37)OH (peptide) yielded an In vitro activity relative to Val^8-GLP-1(7-37)OH (EC50 potency, CRE-BLAM β-lactamase reporter in HEK-293 cells expressing human GLP-1 receptor) (fold relative to Val^8-GLP-1(7-37)OH) of 1.22. Next, Val^8-Arg^26-GLP-1(7-37)OH (peptide): 1.47; GLP-1(7-37)OH (peptide): 2.06. Under Val^8-Trp^12-GLP-1(7-37)OH (peptide) stands 1.07; under Val^8-Ala^27-GLP-1(7-37)OH (peptide), 1.

These data come from patent publication US20040053819A1.
